This experiment concerns the target NtRPT6-GFP (Nicotiana tabacum) (UniProt L7UU40).

Data on one substance can be found in PMC3681735.

In turn, “XopJ-myc (from UniProt A0AB38E6N7 1-316) (natural protein)” yielded a proteasome activity (breakdown of Suc-LLVY-AMC) in total extracts of N. benthamiana leaves transiently expressing XopJ-myc, against the empty vector control of 40%.
